The values that follow come from publication PMC4208761, “Molecular Insights into the Interaction between Plasmodium falciparum Apical Membrane Antigen 1 and an Invasion-Inhibitory Peptide” (PLoS ONE, 2014).

Usually Kd stands for the concentration at which binding is half-saturated. A low value points to higher affinity. A word on the stoichiometry N: it is a count of units in the complex or per binding partner.

One test deals with T1, 3D7 PfAMA1_104–442 (Plasmodium falciparum, UniProt Q7KQK5).
T1 construct: His6 (TEV-cleavable); made in house
As to the kind of experiment: SPR analysis of peptides binding to immobilized AMA1 (Biacore T200). The conditions noted are these: 25°C; for fold reduction in affinity for AMA1 relative to R1_5–16: SPR alanine scan, 1% DMSO in HBS-EP; for Equilibrium dissociation constant K D, truncated R1: SPR, AMA1 immobilized on CM5 chip, HBS-EP running buffer pH 7.4, no DMSO, kinetic 1:1 fit (native R1) or steady-state affinity fit, peptide 10 nM to 10 µM, No binding = no binding event up to 10 µM peptide. As for the experimental part:
A Biacore T200 biosensor instrument was used to measure the affinity of the interaction of peptides with 3D7 PfAMA1_104–442. AMA1 was immobilized onto a CM5 chip as described. Surface plasmon resonance (SPR) experiments were performed at 25°C using HBS-EP (10 mM HEPES, 150 mM NaCl, 3.4 mM EDTA, and 0.05% surfactant P20, pH 7.4) as the running buffer either with (alanine scanning mutagenesis study) or without (truncation study) 1% DMSO. All peptide samples were prepared in the appropriate running buffer. To generate the peptide binding data, peptide at concentrations ranging from 10 nM to 10 µM was injected over immobilized AMA1 at a constant flow rate of 60 µL/min for 1.5 min; peptide dissociation was monitored by flowing running buffer at 60 µL/min for 5 min. The surface was regenerated after each cycle by injecting glycine/HCl at pH 2.0. Sensorgrams were first zeroed on the y-axis and then x-aligned at the start of the injection. Bulk refractive index changes were eliminated by subtracting the reference flow cell responses. For kinetic analysis, ka and kd were determined from the processed data sets by globally fitting to a 1∶1 binding model. For rapidly associating/dissociating truncated peptides, K D was determined by fitting to a steady-state affinity model using a fixed Rmax that was calculated based on the response of R1_5–16.

In test [1] the target is T2, Domain I+II of 3D7 PfAMA1 (residue 104-442), immobilised for SPR (Plasmodium falciparum 3D7, UniProt Q7KQK5 104-442).
T2 sequence (looked up): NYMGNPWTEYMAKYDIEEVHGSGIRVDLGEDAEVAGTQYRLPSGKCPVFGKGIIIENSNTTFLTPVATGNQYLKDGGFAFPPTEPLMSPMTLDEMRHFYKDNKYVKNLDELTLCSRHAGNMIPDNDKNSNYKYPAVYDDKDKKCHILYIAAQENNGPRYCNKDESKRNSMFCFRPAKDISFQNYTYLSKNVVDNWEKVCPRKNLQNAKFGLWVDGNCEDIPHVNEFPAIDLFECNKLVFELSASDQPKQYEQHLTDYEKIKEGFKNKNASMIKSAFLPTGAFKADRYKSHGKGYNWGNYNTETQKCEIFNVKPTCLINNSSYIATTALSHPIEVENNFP
As to the kind of experiment: SPR. To be noted: both partners purified.

Test [2] concerns the target T2, Domain I+II of 3D7 PfAMA1 (residue …). As to the kind of experiment: SPR. The conditions noted are these: both partners purified. This is another data set of the same source.
Test [3] shares this target. As to the kind of experiment: SPR. To be noted: both partners purified. This is another data set of the same source.
Test [4] has as its target T3, Fractionally deuterated 3D7 PfAMA1 (residue 104-442), His6 tag cleaved, for NMR (Plasmodium falciparum 3D7, UniProt Q7KQK5 104-442, randomly fractionally deuterated (f-2H)).
T3 sequence (looked up): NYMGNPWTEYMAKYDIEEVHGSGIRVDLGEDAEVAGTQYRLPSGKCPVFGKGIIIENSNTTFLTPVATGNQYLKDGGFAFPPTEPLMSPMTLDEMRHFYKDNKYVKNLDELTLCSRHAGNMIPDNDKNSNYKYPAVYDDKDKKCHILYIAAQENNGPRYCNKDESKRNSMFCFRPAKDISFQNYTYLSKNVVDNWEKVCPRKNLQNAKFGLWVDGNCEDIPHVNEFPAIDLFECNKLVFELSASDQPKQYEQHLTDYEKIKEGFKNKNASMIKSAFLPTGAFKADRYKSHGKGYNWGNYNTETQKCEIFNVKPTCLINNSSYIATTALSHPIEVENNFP
Put plainly: NMR titration. To be noted: both partners purified.

Entries after “also recorded” stand apart in the source; their conditions may differ. No end group written: not given here.

Regarding Ac-EFLPLFSKFGSRMH-NH2 [R1_4–17], the “reduction of binding affinity relative to native R1” value on 3D7 PfAMA1_104–442 (SPR truncation study, no DMSO) is given as about 10 fold. Consider Ac-FAPLFSKFGSRM-NH2 [R1_5–16 L6A], for which the “fold reduction in affinity for AMA1 relative to R1_5–16” value at 3D7 PfAMA1_104–442 was 33 fold.

With Ac-FLALFSKFGSRM-NH2 [R1_5–16 P7A], the “fold reduction in affinity for AMA1 relative to R1_5–16” value at 3D7 PfAMA1_104–442 is 35 fold. Take Ac-FLPLFAKFGSRM-NH2 [R1_5–16 S10A]: the “fold reduction in affinity for AMA1 relative to R1_5–16” value at 3D7 PfAMA1_104–442 is on record as “less than 3 fold”.

For Ac-FLPLFSAFGSRM-NH2 [R1_5–16 K11A], the “fold reduction in affinity for AMA1 relative to R1_5–16” value at 3D7 PfAMA1_104–442 turned out to be 15 fold. In the case of Ac-FLPLFSKAGSRM-NH2 [R1_5–16 F12A], the “fold reduction in affinity for AMA1 relative to R1_5–16” value at 3D7 PfAMA1_104–442 stood at 48 fold. Ac-FLPLFSKFASRM-NH2 [R1_5–16 G13A]: the “fold reduction in affinity for AMA1 relative to R1_5–16” value on 3D7 PfAMA1_104–442 was determined as 21 fold. Take Ac-FLPLFSKFGARM-NH2 [R1_5–16 S14A]: the “fold reduction in affinity for AMA1 relative to R1_5–16” value on 3D7 PfAMA1_104–442 is reported as “less than 3 fold”. Take Ac-FLPLFSKFGSR-NH2 [R1_5–15]: on 3D7 PfAMA1_104–442 (SPR truncation study, no DMSO, relative to R1_5–16), the “further reduction in K D (affinity) on truncation of R1_5–16 to the 11-residue peptide” value was about 5 fold. As to Ac-FLPLFSKFGSRA-NH2 [R1_5–16 M16A], the “fold reduction in affinity for AMA1 relative to R1_5–16” value on 3D7 PfAMA1_104–442 was “less than 3 fold”. Ac-FLPLFSKFGSRM-NH2 [R1_5–16]: the “reduction of binding affinity relative to native R1” value on 3D7 PfAMA1_104–442 (SPR truncation study, no DMSO) was about 10 fold. “R1_1–11: truncated R1 analogue, N-terminally acetylated and C-terminally amidated (Ac-VFAEFLPLFSK-NH2)”: the “Equilibrium dissociation constant K D, truncated R1” value with 3D7 PfAMA1_104–442 is given as “no detectable binding; also recorded: No binding ^b”. On to “R1_5–14: 10-residue truncated R1 peptide, Arg15 deleted (Ac-FLPLFSKFGS-NH2)”, for which the “Equilibrium dissociation constant K D, truncated R1” value with 3D7 PfAMA1_104–442 is reported as “abolished measurable binding; also recorded: No binding ^b”. Take “R1_11–20: truncated R1 analogue, N-terminally acetylated and C-terminally amidated (Ac-KFGSRMHILK-NH2)”: in the test with 3D7 PfAMA1_104–442, the “Equilibrium dissociation constant K D, truncated R1” value is on record as “No binding ^b”.

B1: R1_(5-16) (peptide)
peptide: Ac-FLPLFSKFGSRM-NH2
notes: source: synthetic peptide (Mimotopes)
Regarding B1, the values for the Kd in test [1] and in test [2] were 0.99 µM and 1.8 µM, respectively.

B2: R1_(5-16) G13A (peptide)
peptide: Ac-FLPLFSKFASRM-NH2
notes: as for B1
B2 had a Kd in test [2] of 39 µM.

B3: R1_(5-16) F12A (peptide)
peptide: Ac-FLPLFSKAGSRM-NH2
notes: as for B1
B3 registered a Kd in test [2] of 87 µM.

B4: R1_(5-16) K11A (peptide)
peptide: Ac-FLPLFSAFGSRM-NH2
notes: also called Lys11Ala mutant; source: synthetic peptide (Mimotopes)
The molecule B4 yielded a Kd in test [2] of 27 µM.

B5: R1_(5-16) M16A (peptide)
peptide: Ac-FLPLFSKFGSRA-NH2
notes: as for B1
B5: the Kd in test [2] turned out to be 2.7 µM.

B6: R1_(5-16) S10A (peptide)
peptide: Ac-FLPLFAKFGSRM-NH2
notes: as for B1
As to B6, the dissociation constant (Kd) in test [2] was found to be 4.8 µM.

B7: R1_(5-16) L6A (peptide)
peptide: Ac-FAPLFSKFGSRM-NH2
notes: as for B1
B7: the affinity in test [2], expressed as Kd, was 60 µM.

B8: R1_(5-16) S14A (peptide)
peptide: Ac-FLPLFSKFGARM-NH2
notes: as for B1
With B8, in test [2], the Kd amounted to 3.3 µM.

B9: R1_(5-16) P7A (peptide)
peptide: Ac-FLALFSKFGSRM-NH2
notes: as for B1
B9 came in with a Kd in test [2] of 61 µM.

B10: R1_(5-16) R15A (peptide)
peptide: Ac-FLPLFSKFGSAM-NH2
notes: as for B1
Molecule B10 displayed a dissociation constant Kd in test [2] of over 100 µM.

B11: R1_(5-15) (peptide)
peptide: Ac-FLPLFSKFGSR-NH2
notes: as for B1
As to B11, the dissociation constant Kd in test [1] was 4.6 µM.

B12: Native R1 peptide (peptide)
peptide: VFAEFLPLFSKFGSRMHILK
Regarding B12, in test [1], the Kd was found to be 0.11 µM. Also, in test [3], the “stoichiometry N” value came out at 1.

B13: R1_(4-17) (peptide)
peptide: Ac-EFLPLFSKFGSRMH-NH2
notes: as for B1
In the case of B13, in test [1], the Kd came out at 0.88 µM.

B14: Recombinant f-2H, u-13C, 15N-labelled R1 peptide (peptide)
peptide: VFAEFLPLFSKFGSRMHILK
modifications: not fully specified
notes: source: E. coli BL21 (DE3), thioredoxin fusion from pET32a, purified (HisTrap, enterokinase cleavage, HiTrap QFF, RP-HPLC)
As for B14, the “stoichiometry N” value in test [4] worked out at 1.
